# Reference: IntAct's records for PubMed 31515488
# B1: Microtubule-associated tumor suppressor candidate 2 (Homo sapiens), Q5JR59-3 (parent)
# chain: MGHCCCKPYNCLQCLDKTNESALVKEKELSIELANIRDEVAFHTAKCEKLQKEKEELERRFEDEVKRLGWQQQAELQELEERLQLQFEAEMARLQEEHGDQLLSIRCQHQEQVEDLTASHDAALLEMENNHTVAITILQDDHDHKVQELMSTHELEKKELEENFEKLRLSLQDQVDTLTFQSQSLRDRARRFEEALRKNTEEQLEIALAPYQHLEEDMKSLKQVLEMKNQQIHEQEKKILELEKLAEKNIILEEKIQVLQQQNEDLKARIDQNTVVTRQLSEENANLQEYVEKETQEKKRLSRTNEELLWKLQTGDPTSPIKLSPTSPVYRGSSSGPSSPARVSTTPR
# partner: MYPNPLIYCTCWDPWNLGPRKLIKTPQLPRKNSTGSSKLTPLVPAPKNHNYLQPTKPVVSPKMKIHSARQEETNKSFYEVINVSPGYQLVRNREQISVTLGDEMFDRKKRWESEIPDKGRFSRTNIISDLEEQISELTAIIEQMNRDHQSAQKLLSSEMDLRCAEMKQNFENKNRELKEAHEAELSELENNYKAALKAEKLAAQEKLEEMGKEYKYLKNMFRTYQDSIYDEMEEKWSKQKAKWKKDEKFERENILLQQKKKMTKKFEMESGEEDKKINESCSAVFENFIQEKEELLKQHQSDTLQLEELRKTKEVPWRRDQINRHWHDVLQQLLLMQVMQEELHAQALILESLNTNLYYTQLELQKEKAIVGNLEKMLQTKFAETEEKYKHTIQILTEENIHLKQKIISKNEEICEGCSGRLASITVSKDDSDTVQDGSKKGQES
# B2: Isoform Long of Autophagy protein 5 (Homo sapiens), Q9H1Y0-1 (parent)
# chain: MTDDKDVLRDVWFGRIPTCFTLYQDEITEREAEPYYLLLPRVSYLTLVTDKVKKHFQKVMRQEDISEIWFEYEGTPLKWHYPIGLLFDLLASSSALPWNITVHFKSFPEKDLLHCPSKDAIEAHFMSCMKEADALKHKSQVINEMQKKDHKQLWMGLQNDRFDQFWAINRKLMEYPAEENGFRYIPFRIYQTTTERPFIQKLFRPVAADGQLHTLGDLLKEVCPSAIDPEDGEKKNQVMIHGIEPMLETPLQWLSEHLSYPDNFLHISIIPQPTD
# B3: Peroxisomal biogenesis factor 3 (Homo sapiens), P56589 (parent)
# chain: MLRSVWNFLKRHKKKCIFLGTVLGGVYILGKYGQKKIREIQEREAAEYIAQARRQYHFESNQRTCNMTVLSMLPTLREALMQQLNSESLTALLKNRPSNKLEIWEDLKIISFTRSTVAVYSTCMLVVLLRVQLNIIGGYIYLDNAAVGKNGTTILAPPDVQQQYLSSIQHLLGDGLTELITVIKQAVQKVLGSVSLKHSLSLLDLEQKLKEIRNLVEQHKSSSWINKDGSKPLLCHYMMPDEETPLAVQACGLSPRDITTIKLLNETRDMLESPDFSTVLNTCLNRGFSRLLDNMAEFFRPTEQDLQHGNSMNSLSSVSLPLAKIIPIVNGQIHSVCSETPSHFVQDLLTMEQVKDFAANVYEAFSTPQQLEK
# partner: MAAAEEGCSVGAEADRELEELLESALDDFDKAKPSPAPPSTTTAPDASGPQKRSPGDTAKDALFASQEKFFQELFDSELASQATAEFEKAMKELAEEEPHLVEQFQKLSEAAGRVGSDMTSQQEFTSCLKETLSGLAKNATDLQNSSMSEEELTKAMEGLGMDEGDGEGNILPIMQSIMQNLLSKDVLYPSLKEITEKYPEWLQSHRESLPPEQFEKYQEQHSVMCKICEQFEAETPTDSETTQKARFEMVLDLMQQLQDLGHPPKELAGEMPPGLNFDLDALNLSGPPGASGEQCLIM
# B4: Endothelial transcription factor GATA-2 (Homo sapiens), P23769 (parent)
# chain: MEVAPEQPRWMAHPAVLNAQHPDSHHPGLAHNYMEPAQLLPPDEVDVFFNHLDSQGNPYYANPAHARARVSYSPAHARLTGGQMCRPHLLHSPGLPWLDGGKAALSAAAAHHHNPWTVSPFSKTPLHPSAAGGPGGPLSVYPGAGGGSGGGSGSSVASLTPTAAHSGSHLFGFPPTPPKEVSPDPSTTGAASPASSSAGGSAARGEDKDGVKYQVSLTESMKMESGSPLRPGLATMGTQPATHHPIPTYPSYVPAAAHDYSSGLFHPGGFLGGPASSFTPKQRSKARSCSEGRECVNCGATATPLWRRDGTGHYLCNACGLYHKMNGQNRPLIKPKRRLSAARRAGTCCANCQTTTTTLWRRNANGDPVCNACGLYYKLHNVNRPLTMKKEGIQTRNRKMSNKSKKSKKGAECFEELSKCMQEKSSPFSAAALAGHMAPVGHLPPFSHSGHILPTPTPIHPSSSLSFGHPHPSSMVTAMG
# B5: Calcium-binding and coiled-coil domain-containing protein 2 (Homo sapiens), Q13137 (parent)
# chain: MEETIKDPPTSAVLLDHCHFSQVIFNSVEKFYIPGGDVTCHYTFTQHFIPRRKDWIGIFRVGWKTTREYYTFMWVTLPIDLNNKSAKQQEVQFKAYYLPKDDEYYQFCYVDEDGVVRGASIPFQFRPENEEDILVVTTQGEVEEIEQHNKELCKENQELKDSCISLQKQNSDMQAELQKKQEELETLQSINKKLELKVKEQKDYWETELLQLKEQNQKMSSENEKMGIRVDQLQAQLSTQEKEMEKLVQGDQDKTEQLEQLKKENDHLFLSLTEQRKDQKKLEQTVEQMKQNETTAMKKQQELMDENFDLSKRLSENEIICNALQRQKERLEGENDLLKRENSRLLSYMGLDFNSLPYQVPTSDEGGARQNPGLAYGNPYSGIQESSSPSPLSIKKCPICKADDICDHTLEQQQMQPLCFNCPICDKIFPATEKQIFEDHVFCHSL
# B6: UPF0488 protein C8orf33 (Homo sapiens), Q9H7E9 (parent)
# chain: MAALGHLAGEAAAAPGPGTPCASRGARLPGPVSSARNPSTVCLCPEQPTCSNADSRAHPLGDEGGTASKKQKNKKKTRNRASVANGGEKASEKLAPEEVPLSAEAQAQQLAQELAWCVEQLELGLKRQKPTPKQKEQAIGAIRTLRSKRTPLPRKRQLMHSLFGDYRAQMEAEWREALRALRAAAYSAQVQPVDGATRKKSQRVCRPRSIWRAKATLDMPDEEFRFNFF
# B7: Isoform 1 of Cell division control protein 45 homolog (Homo sapiens), O75419-1 (parent)
# chain: MFVSDFRKEFYEVVQSQRVLLFVASDVDALCACKILQALFQCDHVQYTLVPVSGWQELETAFLEHKEQFHYFILINCGANVDLLDILQPDEDTIFFVCDTHRPVNVVNVYNDTQIKLLIKQDDDLEVPAYEDIFRDEEEDEEHSGNDSDGSEPSEKRTRLEEEIVEQTMRRRQRREWEARRRDILFDYEQYEYHGTSSAMVMFELAWMLSKDLNDMLWWAIVGLTDQWVQDKITQMKYVTDVGVLQRHVSRHNHRNEDEENTLSVDCTRISFEYDLRLVLYQHWSLHDSLCNTSYTAARFKLWSVHGQKRLQEFLADMGLPLKQVKQKFQAMDISLKENLREMIEESANKFGMKDMRVQTFSIHFGFKHKFLASDVVFATMSLMESPEKDGSGTDHFIQALDSLSRSNLDKLYHGLELAKKQLRATQQTIASCLCTNLVISQGPFLYCSLMEGTPDVMLFSRPASLSLLSKHLLKSFVCSTKNRRCKLLPLVMAAPLSMEHGTVTVVGIPPETDSSDRKNFFGRAFEKAAESTSSRMLHNHFDLSVIELKAEDRSKFLDALISLLS
# partner: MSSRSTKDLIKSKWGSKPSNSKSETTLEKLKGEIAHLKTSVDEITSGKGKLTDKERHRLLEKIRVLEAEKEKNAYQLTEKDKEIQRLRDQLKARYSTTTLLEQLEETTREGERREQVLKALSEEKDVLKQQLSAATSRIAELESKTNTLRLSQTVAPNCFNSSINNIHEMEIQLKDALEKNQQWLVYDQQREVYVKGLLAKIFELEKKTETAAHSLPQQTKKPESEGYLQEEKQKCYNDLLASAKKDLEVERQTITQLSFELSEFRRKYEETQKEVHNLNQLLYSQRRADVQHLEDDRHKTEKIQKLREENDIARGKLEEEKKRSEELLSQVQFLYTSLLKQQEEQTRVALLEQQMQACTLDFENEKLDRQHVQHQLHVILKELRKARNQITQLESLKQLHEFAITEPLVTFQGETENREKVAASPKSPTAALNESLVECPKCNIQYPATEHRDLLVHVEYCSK
# B8: Syntenin-2 (Homo sapiens), Q9H190 (parent)
# chain: MSSLYPSLEDLKVDQAIQAQVRASPKMPALPVQATAISPPPVLYPNLAELENYMGLSLSSQEVQESLLQIPEGDSTAVSGPGPGQMVAPVTGYSLGVRRAEIKPGVREIHLCKDERGKTGLRLRKVDQGLFVQLVQANTPASLVGLRFGDQLLQIDGRDCAGWSSHKAHQVVKKASGDKIVVVVRDRPFQRTVTMHKDSMGHVGFVIKKGKIVSLVKGSSAARNGLLTNHYVCEVDGQNVIGLKDKKIMEILATAGNVVTLTIIPSVIYEHMVKKLPPVLLHHTMDHSIPDA
# partner: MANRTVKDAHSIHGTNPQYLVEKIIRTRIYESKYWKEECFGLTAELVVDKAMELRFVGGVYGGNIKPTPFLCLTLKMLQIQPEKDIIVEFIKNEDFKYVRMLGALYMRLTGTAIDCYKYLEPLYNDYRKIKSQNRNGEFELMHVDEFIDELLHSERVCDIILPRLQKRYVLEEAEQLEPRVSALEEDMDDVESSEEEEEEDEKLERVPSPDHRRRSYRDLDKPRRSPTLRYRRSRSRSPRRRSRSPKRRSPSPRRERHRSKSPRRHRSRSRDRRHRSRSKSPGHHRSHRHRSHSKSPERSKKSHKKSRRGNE
# Variants of: B1
# Conditions: with facc1_human FLACC1, Q96Q35
row,Variant,effect of a mutation on the interaction
1,A89V,with no effect

# Variants of: B2
# Conditions: with tera_human VCP
row,Variant,effect of a mutation on the interaction
1,K58M,disrupting interaction strength

# Variants of: B2
# Conditions: with keap1_human KEAP1, Q14145
# Chain of keap1_human KEAP1, Q14145 (Q14145 whole entry): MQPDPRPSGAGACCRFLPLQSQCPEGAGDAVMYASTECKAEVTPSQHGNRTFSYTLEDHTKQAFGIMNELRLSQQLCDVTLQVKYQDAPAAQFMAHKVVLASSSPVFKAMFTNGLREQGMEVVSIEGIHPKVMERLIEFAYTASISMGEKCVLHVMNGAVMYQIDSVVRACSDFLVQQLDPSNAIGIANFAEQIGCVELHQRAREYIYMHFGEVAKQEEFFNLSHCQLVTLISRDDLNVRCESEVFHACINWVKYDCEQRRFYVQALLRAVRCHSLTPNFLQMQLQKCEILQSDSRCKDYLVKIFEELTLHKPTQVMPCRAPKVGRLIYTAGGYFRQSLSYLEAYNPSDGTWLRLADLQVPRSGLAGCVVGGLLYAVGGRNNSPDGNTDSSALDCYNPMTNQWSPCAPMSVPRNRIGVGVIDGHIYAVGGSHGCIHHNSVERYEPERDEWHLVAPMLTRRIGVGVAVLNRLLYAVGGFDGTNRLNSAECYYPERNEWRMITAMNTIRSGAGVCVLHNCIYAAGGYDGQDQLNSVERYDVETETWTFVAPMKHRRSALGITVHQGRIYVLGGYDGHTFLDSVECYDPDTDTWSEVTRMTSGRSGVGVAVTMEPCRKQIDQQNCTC
row,Variant,effect of a mutation on the interaction
1,K58M,with no effect

# Variants of: B3
# Conditions: with pex19_human PEX19, P40855
row,Variant,effect of a mutation on the interaction
1,D347Y,with no effect
2,Q82R,with no effect

# Variants of: B4
# Conditions: with fhl3_human FHL3, Q13643
# Chain of fhl3_human FHL3, Q13643 (Q13643 whole entry): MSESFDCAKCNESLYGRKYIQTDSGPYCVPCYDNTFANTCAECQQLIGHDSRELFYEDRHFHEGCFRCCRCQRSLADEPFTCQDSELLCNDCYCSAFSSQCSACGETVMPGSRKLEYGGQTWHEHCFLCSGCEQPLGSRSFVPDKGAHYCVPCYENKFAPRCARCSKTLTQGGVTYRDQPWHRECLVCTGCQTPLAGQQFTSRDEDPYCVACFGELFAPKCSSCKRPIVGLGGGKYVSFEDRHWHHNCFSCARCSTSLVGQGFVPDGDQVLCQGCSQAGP
row,Variant,effect of a mutation on the interaction
1,A164T,with no effect

# Variants of: B4
# Conditions: with psa3_human PSMA3, P25788
# Chain of psa3_human PSMA3, P25788 (P25788 whole entry): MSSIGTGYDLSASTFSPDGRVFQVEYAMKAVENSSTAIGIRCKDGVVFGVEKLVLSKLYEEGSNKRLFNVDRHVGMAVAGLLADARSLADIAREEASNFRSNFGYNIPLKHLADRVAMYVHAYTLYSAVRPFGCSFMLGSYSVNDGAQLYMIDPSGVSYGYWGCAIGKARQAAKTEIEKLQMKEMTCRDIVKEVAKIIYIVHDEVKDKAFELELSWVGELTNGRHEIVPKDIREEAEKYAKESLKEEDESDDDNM
row,Variant,effect of a mutation on the interaction
1,A164T,with no effect

# Variants of: B4
# Conditions: with tri23_human TRIM23, P36406
# Chain of tri23_human TRIM23, P36406 (P36406 whole entry): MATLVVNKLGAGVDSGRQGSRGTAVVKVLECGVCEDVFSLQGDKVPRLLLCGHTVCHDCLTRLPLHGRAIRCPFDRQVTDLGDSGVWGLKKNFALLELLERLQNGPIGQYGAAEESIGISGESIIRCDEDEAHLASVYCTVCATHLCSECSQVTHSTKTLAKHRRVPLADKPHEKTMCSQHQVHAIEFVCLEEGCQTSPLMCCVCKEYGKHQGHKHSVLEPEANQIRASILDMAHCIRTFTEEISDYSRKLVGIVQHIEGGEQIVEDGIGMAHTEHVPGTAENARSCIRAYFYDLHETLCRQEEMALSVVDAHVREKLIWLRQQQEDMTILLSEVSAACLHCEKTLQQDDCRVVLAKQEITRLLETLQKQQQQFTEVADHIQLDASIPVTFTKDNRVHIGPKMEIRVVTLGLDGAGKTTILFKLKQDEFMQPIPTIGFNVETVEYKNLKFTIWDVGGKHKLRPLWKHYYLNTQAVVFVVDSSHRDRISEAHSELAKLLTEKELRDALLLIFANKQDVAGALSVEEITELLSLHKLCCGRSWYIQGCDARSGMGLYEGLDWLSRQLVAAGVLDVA
row,Variant,effect of a mutation on the interaction
1,A164T,with no effect

# Variants of: B4
# Conditions: with mdfi_human MDFI
row,Variant,effect of a mutation on the interaction
1,A164T,with no effect

# Variants of: B5
# Conditions: with leg8_human LGALS8, O00214
# Chain of leg8_human LGALS8, O00214 (O00214 whole entry): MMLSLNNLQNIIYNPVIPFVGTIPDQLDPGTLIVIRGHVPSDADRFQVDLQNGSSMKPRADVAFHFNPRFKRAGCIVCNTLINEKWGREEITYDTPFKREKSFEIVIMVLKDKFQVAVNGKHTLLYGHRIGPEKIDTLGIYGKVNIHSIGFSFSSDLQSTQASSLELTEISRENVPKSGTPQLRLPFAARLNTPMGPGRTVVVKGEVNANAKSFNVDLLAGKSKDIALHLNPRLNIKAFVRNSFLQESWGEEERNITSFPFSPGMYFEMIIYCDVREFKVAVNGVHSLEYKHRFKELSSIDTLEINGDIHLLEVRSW
row,Variant,effect of a mutation on the interaction
1,T255A,with no effect
2,P389A,with no effect
3,T273A,with no effect
4,E222K,with no effect

# Variants of: B5
# Conditions: with tcl1a_human TCL1A
row,Variant,effect of a mutation on the interaction
1,P389A,with no effect
2,T273A,with no effect
3,E222K,with no effect

# Variants of: B5
# Conditions: with dus12_human DUSP12, Q9UNI6
# Chain of dus12_human DUSP12, Q9UNI6 (Q9UNI6 whole entry): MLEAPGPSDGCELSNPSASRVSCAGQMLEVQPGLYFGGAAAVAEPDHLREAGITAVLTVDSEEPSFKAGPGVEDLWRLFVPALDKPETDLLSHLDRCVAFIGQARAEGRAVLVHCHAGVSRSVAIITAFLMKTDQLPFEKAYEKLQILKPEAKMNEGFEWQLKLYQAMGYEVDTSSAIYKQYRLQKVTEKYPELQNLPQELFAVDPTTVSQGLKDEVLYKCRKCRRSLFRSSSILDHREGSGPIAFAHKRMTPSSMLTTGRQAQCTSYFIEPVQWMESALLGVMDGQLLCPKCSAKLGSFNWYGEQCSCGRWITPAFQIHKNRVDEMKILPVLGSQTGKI
row,Variant,effect of a mutation on the interaction
1,P389A,with no effect
2,T273A,with no effect

# Variants of: B5
# Conditions: with smrd1_human SMARCD1, Q96GM5
# Chain of smrd1_human SMARCD1, Q96GM5 (Q96GM5 whole entry): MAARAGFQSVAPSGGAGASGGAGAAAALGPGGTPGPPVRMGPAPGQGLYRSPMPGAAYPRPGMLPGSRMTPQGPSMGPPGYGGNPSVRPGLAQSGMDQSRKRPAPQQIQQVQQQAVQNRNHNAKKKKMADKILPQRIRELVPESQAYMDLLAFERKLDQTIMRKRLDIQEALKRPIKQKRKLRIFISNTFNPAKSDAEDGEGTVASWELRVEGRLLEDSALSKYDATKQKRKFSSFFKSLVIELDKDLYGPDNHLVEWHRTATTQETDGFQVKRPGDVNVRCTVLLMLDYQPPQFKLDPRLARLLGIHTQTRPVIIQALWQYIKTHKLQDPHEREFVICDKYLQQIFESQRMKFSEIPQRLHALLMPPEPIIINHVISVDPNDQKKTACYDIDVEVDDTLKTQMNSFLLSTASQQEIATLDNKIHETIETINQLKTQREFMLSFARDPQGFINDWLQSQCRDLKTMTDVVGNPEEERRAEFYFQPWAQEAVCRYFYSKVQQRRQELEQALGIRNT
row,Variant,effect of a mutation on the interaction
1,E222K,with no effect

# Variants of: B5
# Conditions: with tekt3_human TEKT3, Q9BXF9
# Chain of tekt3_human TEKT3, Q9BXF9 (Q9BXF9 whole entry): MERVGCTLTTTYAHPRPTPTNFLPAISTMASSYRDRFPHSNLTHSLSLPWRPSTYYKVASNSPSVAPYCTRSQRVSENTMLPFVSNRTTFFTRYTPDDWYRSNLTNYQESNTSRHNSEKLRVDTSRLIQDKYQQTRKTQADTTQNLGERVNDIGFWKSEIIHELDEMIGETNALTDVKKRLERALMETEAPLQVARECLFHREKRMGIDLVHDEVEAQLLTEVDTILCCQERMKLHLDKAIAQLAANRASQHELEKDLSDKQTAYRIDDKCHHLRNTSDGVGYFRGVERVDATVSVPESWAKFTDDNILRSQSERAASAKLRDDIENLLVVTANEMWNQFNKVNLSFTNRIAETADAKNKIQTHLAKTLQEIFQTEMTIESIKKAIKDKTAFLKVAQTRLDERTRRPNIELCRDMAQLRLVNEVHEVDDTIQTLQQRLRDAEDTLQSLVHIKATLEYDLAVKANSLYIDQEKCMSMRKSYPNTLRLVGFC
row,Variant,effect of a mutation on the interaction
1,V248A,with no effect

# Variants of: B6
# Conditions: with ldoc1_human LDOC1, O95751
# Chain of ldoc1_human LDOC1, O95751 (O95751 whole entry): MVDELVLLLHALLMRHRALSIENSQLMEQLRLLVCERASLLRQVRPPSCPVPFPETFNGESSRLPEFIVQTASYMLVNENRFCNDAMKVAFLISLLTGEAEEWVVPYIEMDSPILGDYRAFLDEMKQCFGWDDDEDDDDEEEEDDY
row,Variant,effect of a mutation on the interaction
1,G25R,with no effect

# Variants of: B6
# Conditions: with cep70_human CEP70, Q8NHQ1
# Chain of cep70_human CEP70, Q8NHQ1 (Q8NHQ1 whole entry): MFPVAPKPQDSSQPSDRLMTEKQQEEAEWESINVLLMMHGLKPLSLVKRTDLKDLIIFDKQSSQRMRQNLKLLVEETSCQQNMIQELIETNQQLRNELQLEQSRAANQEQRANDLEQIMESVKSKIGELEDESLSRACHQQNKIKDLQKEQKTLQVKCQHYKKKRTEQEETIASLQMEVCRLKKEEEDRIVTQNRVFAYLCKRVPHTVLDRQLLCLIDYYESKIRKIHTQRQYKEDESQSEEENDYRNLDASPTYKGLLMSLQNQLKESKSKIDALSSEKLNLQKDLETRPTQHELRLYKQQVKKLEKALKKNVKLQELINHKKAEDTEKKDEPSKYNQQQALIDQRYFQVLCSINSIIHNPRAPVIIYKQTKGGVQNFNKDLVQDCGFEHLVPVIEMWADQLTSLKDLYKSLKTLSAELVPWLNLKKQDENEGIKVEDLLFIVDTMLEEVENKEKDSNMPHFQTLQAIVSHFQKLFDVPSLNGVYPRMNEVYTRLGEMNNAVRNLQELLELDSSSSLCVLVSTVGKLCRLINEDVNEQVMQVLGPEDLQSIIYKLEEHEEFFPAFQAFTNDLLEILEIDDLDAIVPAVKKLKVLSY
row,Variant,effect of a mutation on the interaction
1,G25R,with no effect

# Variants of: B7
# Conditions: with cep55_human CEP55, Q53EZ4
row,Variant,effect of a mutation on the interaction
1,G150E,with no effect

# Variants of: B8
# Conditions: with pr38a_human PRPF38A
row,Variant,effect of a mutation on the interaction
1,G242R,disrupting interaction strength
2,G225R,disrupting interaction strength
